# Test results reported in article PMC4979544 (Structure (London, England : 1993), 2016).
# Where a chain is given by its changes, count along the chain named. Names may count otherwise. Ends that are not written are not given here.
# B1: A. tumefaciens ClpS2 L28A (natural protein)
# chain: MSDSPVDLKPKPKVKPKLERPKLYKVMALNDDYTPREFVTVVLKAVFRMSEDTGRRVMMTAHRFGSAVVVVCERDIAETKAKEATDLGKEAGFPLMFTTEPEE
# B2: A. tumefaciens ClpS2 R36M (natural protein)
# chain: B1 chain with A28L, R36M
# Legend:
# Assay in all cases: fluorescence polarisation
# [1] = target: T1, WRFVQELASKEVC-fluorescein peptide
# T1 peptide: WRFVQELASKEVC(fluorescein‑5‑maleimide)
# [2] = target: T2, FRFVQELASKEVC-fluorescein peptide
# T2 peptide: FRFVQELASKEVC(fluorescein‑5‑maleimide)
# [3] = target: T3, YRFVQELASKEVC-fluorescein peptide
# T3 peptide: YRFVQELASKEVC(fluorescein‑5‑maleimide)
# A. tumefaciens ClpS2 = target: T4, A. tumefaciens ClpS2 (A. tumefaciens, UniProt Q8UD95 1-103, 35S-labeled in the peptide blots only)
# T4 sequence (looked up): B1 chain with A28L
binder,measurement,setting,value
B1,ΔΔG against parent ClpS2,[1],0.3 kcal/mol
same,ΔΔG against parent ClpS2,[2],0.91 kcal/mol
same,ΔΔG against parent ClpS2,[3],-0.26 kcal/mol
B2,ΔΔG against parent ClpS2,[1],-0.3 kcal/mol
same,ΔΔG against parent ClpS2,[2],-0.17 kcal/mol
same,ΔΔG against parent ClpS2,[3],-0.74 kcal/mol
LRFVQELASKEVC(fluorescein‑5‑maleimide) [LRFVQELASKEVC-fluorescein peptide],Kd,A. tumefaciens ClpS2,> 800 µM
